Data from publication PMC9309400.

Tests used:
[1] = biological target: Family 2B encapsulin from S. griseus, expressed in E. coli (S. griseus); test: cryo-EM 2D class averages
[2] = biological target: Family 2B encapsulin from S. griseus (Q54255), expressed in S. coelicolor (S. griseus); test: cryo-EM 2D class averages

| Substance | percent of encapsulins with apparent cargo [1] | percent of particles with cargo [2] |
| --- | --- | --- |
| cargo protein of the Family 2B encapsulin from S. griseus, expressed in E. coli (natural protein) | 34% |  |
| cargo protein of the encapsulin (A0A2X2LWM5), expressed in S. coelicolor (natural protein) |  | 96% |
